# According to patent publication US20140148503, “NUCLEIC ACID APTAMERS” (University of Iowa Research Foundation, published 2014):
# B1: A9 (ssRNA)
# RNA: GGGAGGACGAUGCGGACCGAAAAAGACCUGACUUCUAUACUAAGUCUACGUUCCCAGACGACUCGCCCGA
# modifications: 2'-F pyrimidines
# Columns and labels:
# [1] = molecular target: T1, PSMA (prostate specific membrane antigen) (Homo sapiens, UniProt Q04609 Q04609:44-750); assay: inhibition; NAALADase; 1 mM CoCl2, 37 C; settings: tags: R&D Systems 4234-ZN-010; chain copies: 2
# Description: Refolding was accomplished by heating at 65° C. for 10 minutes, followed by cooling to 37° C. for 10 minutes. A volume of 120 μL of refolded RNA in binding buffer was added to an Eppendorf tube, was combined with 40 μL of 200 mM Tris buffer, pH 7.5, and 20 μL 10 mM CoCl₂ (final concentrations in the reaction 40 mM and 1 mM, respectively). Cobalt (II) chloride was reported to be a “stimulator of enzymatic activity” in the original NAALADase assay protocol (Xiao, Z., et al., (2000) Generation of a baculovirus recombinant prostate-specific membrane antigen and its use in the development of a novel protein biochip quantitative immunoassay. Protein Expr Purif, 19, 12-21). When this compound was omitted from the reaction, we observed increased non-specific RNA interactions. Two micrograms in 2 μL of recombinant human PSMA (4234-ZN-010) from R&D Systems (Minneapolis, Minn.) was diluted in 500 μL of 50 mM pH 7.5 Tris buffer. Ten microliters of the PSMA solution (40 ng PSMA) was added to the reaction mix, and the reaction was incubated for 5 minutes at 37° C. to promote RNA-PSMA interaction. For the experiment shown in FIG. 1A, recombinant, purified human PSMA was obtained courtesy of Dr. David Spencer (Baylor College of Medicine, Houston, Tex.). […]
# AG 1-X8 formate resin (200-400 mesh) columns from Bio-Rad (731-6221) were used to quantitate the [³H]-glutamate reaction product. […]
# [2] = molecular target: T1, PSMA (prostate specific membrane …); assay: filter; 37 C; settings: tags: R&D Systems 4234-ZN-010; chain copies: 2
# From the text: FIGS. 3A-3B. Binding of A9 and A9g to human PSMA. (A) A saturation filter binding assay was used to measure binding of A9 and A9g to recombinant human PSMA protein. […] The fraction bound was normalized to the Bₘₐₓ (maximal binding capacity) of A9. (B) Measurement of the binding affinity of A9g for recombinant human PSMA protein by surface plasmon resonance (SPR, BIACore). The data were fit to a 1:1 binding with mass transfer model. […] The on-rate (kₐ) was 1.15×10⁴ M⁻¹·S⁻¹ and the off-rate (kd) was 5.7×10⁻⁵ s⁻¹.
# Filter binding assays were performed as previously described (Wong, I. and Lohman, T. M. (1993) A double-filter method for nitrocellulose-filter binding: application to protein-nucleic acid interactions. Prac Natl Acad Sci USA, 90, 5428-5432). Briefly, aptamers were 5′-end labeled with ³²P using PNK. RNA was incubated for 5 minutes with various concentrations of purified, recombinant human PSMA (4234-ZN-010) obtained from R&D Systems at 37° C. The reaction mixture was spotted onto a sandwich of nitrocellulose (Protran BA 83, 0.2 μm pore size, 10 402 488, Whatman), nylon (Zeta-Probe Blotting Membranes, 162-0153, Bio-Rad), and Whatman 3MM chromatography paper (3130-6189) assembled in a dot-blot apparatus. […] The ratio of bound:unbound RNA was calculated by exposing the filters to a storage phosphor screen and imaging with a phosphorimager.
# [3] = molecular target: T1, PSMA (prostate specific membrane …); assay: cell_activity; transwell migration; settings: tags: PSMA-expressing cells, migration and invasion assays; chain copies: 2
# [4] = molecular target: T1, PSMA (prostate specific membrane …); assay: inhibition; NAALADase of membrane extract; settings: protein: extract; tags: membrane extract of PC-3 (PSMA+) cells stably expressing human PSMA; chain copies: 2
# [5] = molecular target: T1, PSMA (prostate specific membrane …); assay: SPR; 1:1 with mass transfer; range 5-30 nM in triplicate; 20 mM HEPES pH 7.4, 150 mM NaCl, 2 mM CaCl2; settings: tags: R&D Systems 4234-ZN-010; chain copies: 2; label: 5'-biotin-spacer9-G
# Description: The data were fit to a 1:1 binding with mass transfer model. […] The on-rate (kₐ) was 1.15×10⁴ M⁻¹·S⁻¹ and the off-rate (kd) was 5.7×10⁻⁵ s⁻¹.
# Surface Plasmon Resonance (SPR) measurements were carried out using a BIACore 3000 device. 5′-biotinylated RNA was generated by transcription and gel purification as described above, except the transcription reactions were carried out in the presence of 3 mM biotin-G (Custom order from TriLink Biotechnologies, San Diego, Calif.: 5′-(Biotin) (Spacer 9) G-3′). The biotinylated RNA was immobilized on a streptavidin-coated Biacore chip (Sensor Chip SA, 13R-1003-98, General Electric Company) by injection in binding buffer at a concentration of 25 μg/mL (20 mM HEPES, pH 7.4, 150 mM NaCl, 2 mM CaCl₂). The RNA was refolded by heating to 65° C. followed by cooling to 37° C. prior to immobilization. […]
# The NAALADase activity assay provides an indirect measurement of the interaction of the PSMA aptamers with PSMA. […] As determined by the filter binding assay, the A9g aptamer retains the same binding profile as the full-length A9 (FIG. 3A). […] After the injection was halted, the rate of dissociation (koff) was measured. By repeating these measurements at various analyte (PSMA) concentrations, an accurate estimation of binding was determined (KD=koff/Kₒₙ).
# [6] = molecular target: T2, BSA (bovine serum albumin) (UniProt P02769 P02769:25-607); assay: SPR; no appreciable interaction; specificity control; settings: label: 5'-biotin-spacer9-G
# Description: (§1) Surface Plasmon Resonance (SPR) measurements were carried out using a BIACore 3000 device. 5′-biotinylated RNA was generated by transcription and gel purification as described above, except the transcription reactions were carried out in the presence of 3 mM biotin-G (Custom order from TriLink Biotechnologies, San Diego, Calif.: 5′-(Biotin) (Spacer 9) G-3′). The biotinylated RNA was immobilized on a streptavidin-coated Biacore chip (Sensor Chip SA, 13R-1003-98, General Electric Company) by injection in binding buffer at a concentration of 25 μg/mL (20 mM HEPES, pH 7.4, 150 mM NaCl, 2 mM CaCl₂). The RNA was refolded by heating to 65° C. followed by cooling to 37° C. prior to immobilization. To measure binding kinetics, fixed concentrations of purified protein were injected over the chip using the “KINJECT” function at a flow rate of 15 μL/min. After binding, the chip was regenerated by injecting 50 mM NaOH with the “QUICKINJECT” function. […]
# (§2) Binding specificity of the A9g aptamer for PSMA was determined using SPR/BIACore (FIG. 4D; left panel). Binding specificity was assessed by comparing the kₒₙ, and koff rates of A9g for recombinant PSMA protein (target) to the Kₒₙ, and koff rates of A9g for non-target proteins (BSA and HER2). […] No appreciable interaction between A9g and the non-target proteins (BSA and HER2) was measured (FIG. 4D; left panel). […]
# [7] = molecular target: T1, PSMA (prostate specific membrane …); assay: filter; Bmax severely diminished; settings: tags: R&D Systems 4234-ZN-010; chain copies: 2
# From the text: FIGS. 4A-4D. Characterization of A9g binding to PSMA. (A) Secondary structural predictions of truncated A9 aptamers generated using the RNAStructure 4.6 algorithm. Base changes are denoted by an asterisk (*). Base changes were introduced in an attempt to either retain the predicted secondary structure (A9g.1 and A9g.2) or disrupt various secondary structural elements (A9g.3-A9g.6) of A9g. Two secondary structure predictions were given for the A9g.4 sequence, denoted by A9g.4a and A9g.4b. (B) Effect of A9g aptamer derivatives (A9g.1 through A9g.6) on PSMA NAALADase inhibitor activity. NAALADase activity was measured and normalized as in FIG. 1. (C) Saturation filter binding assay of A9g aptamer and A9g aptamer derivatives (A9g.3-A9g.6). (D) Binding of A9g to recombinant human PSMA, recombinant rat HER2 (rHER2), and BSA using BIACore (left panel). Binding of A9g.6 to recombinant human PSMA, recombinant rat HER2 (rHER2), and BSA using BIACore (right panel).
# Filter binding assays were performed as previously described (Wong, I. and Lohman, T. M. (1993) A double-filter method for nitrocellulose-filter binding: application to protein-nucleic acid interactions. Prac Natl Acad Sci USA, 90, 5428-5432). Briefly, aptamers were 5′-end labeled with ³²P using PNK. RNA was incubated for 5 minutes with various concentrations of purified, recombinant human PSMA (4234-ZN-010) obtained from R&D Systems at 37° C. The reaction mixture was spotted onto a sandwich of nitrocellulose (Protran BA 83, 0.2 μm pore size, 10 402 488, Whatman), nylon (Zeta-Probe Blotting Membranes, 162-0153, Bio-Rad), and Whatman 3MM chromatography paper (3130-6189) assembled in a dot-blot apparatus. Bound RNA was captured on the nitrocellulose filter, while unbound RNA was captured on the nylon filter. The ratio of bound:unbound RNA was calculated by exposing the filters to a storage phosphor screen and imaging with a phosphorimager.
# [8] = molecular target: T1, PSMA (prostate specific membrane …); assay: 32P-labeled RNA on cells, on ice; settings: tags: 22Rv1 (1.7) prostate cancer cells; chain copies: 2
# Description: One day prior to the binding assay, cells were plated in a 24-well plate at a density of approximately 100,000 cells per well. All subsequent procedures were performed on ice to prevent aptamer internalization. Prior to binding, each well was washed twice with 1 ml of ice-cold Dulbecco's phosphate-buffered saline in the absence of divalent cations (DPBS −/−) to remove growth media. Aptamers were 5′ end-labeled with ³²P using PNK from New England Biolabs as previously described (McNamara, J. O., et al., (2008) Multivalent 4-1BB binding aptamers costimulate CD8+ T cells and inhibit tumor growth in mice. J Clin Invest, 118, 376-386). The concentration of ³²P-radiolabeled aptamer was measured with UV-visible absorption spectroscopy, and serial dilutions ranging from 1000 nM to 30 nM were performed. To measure non-specific binding, serial dilutions were also made containing a high fixed concentration of non-radiolabeled A9g aptamer, at 10 μM. […] Bound RNA was collected by washing with 0.5 ml of 0.5 N NaOH which was added to 3 ml of scintillation fluid, and activity was measured. For each dilution, specific binding was calculated by subtracting the activity of the sample with a high concentration of non-radiolabeled (“cold”) aptamer added (i.e., non-specific binding) from the sample without cold aptamer added (i.e., total binding). […]
# [9] = molecular target: T1, PSMA (prostate specific membrane …); assay: cell_activity; transwell migration; invasion IC50 75 nM (FIG. 15C); settings: tags: PSMA-expressing cells, migration and invasion assays; chain copies: 2
# [10] = molecular target: T1, PSMA (prostate specific membrane …); assay: SPR; lack of binding; settings: tags: R&D Systems 4234-ZN-010; chain copies: 2; label: 5'-biotin-spacer9-G
# Description: as §1, §2
# [11] = molecular target: T2, BSA (bovine serum albumin); assay: SPR; no measurable binding; settings: label: 5'-biotin-spacer9-G
# Description: as §1, §2
# T1 sequence (Q04609 44-750, one chain of several): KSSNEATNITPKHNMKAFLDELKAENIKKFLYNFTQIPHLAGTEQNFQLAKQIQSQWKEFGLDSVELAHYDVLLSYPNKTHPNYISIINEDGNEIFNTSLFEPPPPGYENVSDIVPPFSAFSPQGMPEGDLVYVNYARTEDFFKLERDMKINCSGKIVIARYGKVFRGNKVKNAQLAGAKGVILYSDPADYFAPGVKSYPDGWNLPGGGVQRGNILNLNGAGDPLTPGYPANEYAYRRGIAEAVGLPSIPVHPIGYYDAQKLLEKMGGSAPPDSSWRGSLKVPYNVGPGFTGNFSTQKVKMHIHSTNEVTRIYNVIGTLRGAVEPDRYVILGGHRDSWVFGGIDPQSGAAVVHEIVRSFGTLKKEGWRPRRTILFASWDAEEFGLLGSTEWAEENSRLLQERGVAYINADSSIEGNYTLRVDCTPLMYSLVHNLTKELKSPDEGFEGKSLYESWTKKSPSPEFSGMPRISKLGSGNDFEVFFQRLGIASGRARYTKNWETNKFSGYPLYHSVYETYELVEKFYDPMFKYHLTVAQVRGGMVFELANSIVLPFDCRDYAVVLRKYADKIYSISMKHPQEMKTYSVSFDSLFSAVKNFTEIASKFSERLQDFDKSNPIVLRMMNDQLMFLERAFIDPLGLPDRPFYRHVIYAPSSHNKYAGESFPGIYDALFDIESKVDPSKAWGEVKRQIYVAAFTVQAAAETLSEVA
# T2 sequence (P02769 25-607, one chain of several): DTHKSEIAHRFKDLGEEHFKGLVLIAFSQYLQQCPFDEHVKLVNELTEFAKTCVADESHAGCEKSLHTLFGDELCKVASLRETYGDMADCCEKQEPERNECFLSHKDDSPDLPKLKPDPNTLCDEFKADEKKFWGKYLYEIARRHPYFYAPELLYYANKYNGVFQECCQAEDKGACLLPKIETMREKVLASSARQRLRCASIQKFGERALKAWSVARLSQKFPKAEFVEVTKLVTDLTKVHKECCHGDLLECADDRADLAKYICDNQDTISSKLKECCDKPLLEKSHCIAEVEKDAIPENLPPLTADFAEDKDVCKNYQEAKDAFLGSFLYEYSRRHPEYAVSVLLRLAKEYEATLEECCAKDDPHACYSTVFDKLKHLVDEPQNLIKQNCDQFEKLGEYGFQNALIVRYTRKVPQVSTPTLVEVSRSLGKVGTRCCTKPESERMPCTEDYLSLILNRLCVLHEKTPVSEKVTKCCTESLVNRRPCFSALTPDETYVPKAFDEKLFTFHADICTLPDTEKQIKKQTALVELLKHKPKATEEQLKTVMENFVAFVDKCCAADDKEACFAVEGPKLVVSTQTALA
binder,measurement,setting,value
B1,IC50,[1],~10 nM
same,Kd,[2],110 nM
same,IC50,[3],81 nM
same,IC50,[4],267 nM
"GGGACCGAAAAAGACCUGACUUCUAUACUAAGUCUACGUUCCC (ssRNA, 2'-F pyrimidines) [A9g 5'-biotin]",Kd,[5],5 nM
same,binding result,[6],no binding
"GGGACCGAAAAAGACCUGACUUCUAUACUAAGUCUACGGUCCC (ssRNA, 2'-F pyrimidines) [A9g.3 (U39G)]",binding result,[7],no binding
"GGGACCGAAAAAGACCUGGCUUCUAUACUAAGUCUACGUUCCC (ssRNA, 2'-F pyrimidines) [A9g.6]",binding result,[7],no binding
"GGGACCGAAAAAGACCUGACUUCUAUACUAGGUCUACGUUCCC (ssRNA, 2'-F pyrimidines) [A9g.5]",binding result,[7],no binding
"GGGACCGAAAAAGACCUGACUUCUAUACUAAGUCUACGUUCCC (ssRNA, 2'-F pyrimidines) [A9g]",IC50,[1],~10 nM
same,binding signal,[8],~2 fold binding capacity vs PSMA-negative PC-3
same,Kd,[2],130 nM
same,IC50,[4],290 nM
same,IC50,[9],18 nM
"GGGACCGAAAAAGACCUGGCUUCUAUACUAAGUCUACGUUCCC (ssRNA, 2'-F pyrimidines) [A9g.6 5'-biotin]",binding result,[10],no binding
same,binding result,[11],no binding
